Common to all, as to test: EMSA
For orientation: Mobility shift assays separate free from complexed probe on a gel.

For series [1], the target named is T1, GST-CNBP (isoform 1, WT) (mouse, UniProt P53996 1-178).
In series [2] the target is T1, GST-CNBP (isoform 1, WT). The source holds these as a separate data set.
The target of series [3] is GST-CNBP Δ54-178 (CNBP-1-53) (mouse, UniProt P53996 1-53, del54-178).
Series [4] concerns the target T1, GST-CNBP (isoform 1, WT). This is another data set of the same source.

Like-named read-outs stand apart in the source and are kept apart here. Where only a bound is given, the exact number is not on record here.

T1 sequence (P53996 whole entry, canonical isoform): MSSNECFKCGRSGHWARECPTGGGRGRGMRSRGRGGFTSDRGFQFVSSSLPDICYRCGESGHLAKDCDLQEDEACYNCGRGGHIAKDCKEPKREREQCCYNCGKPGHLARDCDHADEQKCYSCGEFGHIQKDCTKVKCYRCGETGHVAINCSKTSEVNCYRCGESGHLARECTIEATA
Chain of GST-CNBP Δ54-178 (CNBP-1-53) (P53996 1-53, stated change not applied): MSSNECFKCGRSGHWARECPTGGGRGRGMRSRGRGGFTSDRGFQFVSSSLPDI

B1: Mut.2 (dsDNA)
DNA 1: AGTGGAGA
DNA 2: TCTCCACT
On to B1, for which the binding signal with GST-CNBP (isoform 1, WT) [1] is > 1 fold of AGTTGAGA.

B2: 26-nt-CTGAAAAA (dsDNA)
DNA 1: GGAACTAGTCTGAAAAAGAAACTAAC
DNA 2: GTTAGTTTCTTTTTCAGACTAGTTCC
For B2, the binding result with GST-CNBP (isoform 1, WT) [2] is “binds”.

B3: CTGAAAAA probe (il-6, il-1b, ccl9, cnbp) (dsDNA)
DNA 1: CTGAAAAA
DNA 2: TTTTTCAG
Regarding B3, the binding result in series [3] is “binds”; with GST-CNBP (isoform 1, WT) [2], “binds”.

B4: AAATTAGA probe (il-6, ccl4) (dsDNA)
DNA 1: AAATTAGA
DNA 2: TCTAATTT
With B4, the binding result in the series with GST-CNBP (isoform 1, WT) [2] is reported as “binds”.

B5: AAATTAGT probe (il-12b, ccl5, cnbp) (dsDNA)
DNA 1: AAATTAGT
DNA 2: ACTAATTT
On to B5, for which the binding result with GST-CNBP (isoform 1, WT) [2] is listed as “binds”.

B6: Mut.5 (dsDNA)
DNA 1: GGGAAAAA
DNA 2: TTTTTCCC
Turning to B6, the binding signal in the series with GST-CNBP (isoform 1, WT) [4] is > 1 fold of CTGAAAAA.

B7: AGTTGAGA probe (ccl4) (dsDNA)
DNA 1: AGTTGAGA
DNA 2: TCTCAACT
Consider B7, for which the binding result with GST-CNBP (isoform 1, WT) [2] was “binds”.

For GGAGGAGAGAGAGAGAGAGAGAGAGA (mixed) [G-rich 26-nt (strandedness in assay not stated; antisense S140 also listed)], in the series with GST-CNBP (isoform 1, WT) [2], the binding result is given as “binds”.

B8: NF-κB probe (dsDNA)
DNA 1: AATGTGGGATTTTCCCATGA
DNA 2: TCATGGGAAAATCCCACATT
Consider B8, for which the binding result with GST-CNBP (isoform 1, WT) [2] is given as “no binding”.

B9: 26-nt-AAATTAGT (dsDNA)
DNA 1: TGTAAACAGAAATTAGTATCTCTGCC
DNA 2: GGCAGAGATACTAATTTCTGTTTACA
Take B9: in the series with GST-CNBP (isoform 1, WT) [2], the binding result is given as “binds”.

B10: Mut.3 (dsDNA)
DNA 1: AGTTGCCA
DNA 2: TGGCAACT
For B10, the binding result in the series with GST-CNBP (isoform 1, WT) [2] is given as “no binding”.

B11: Mut.6 (dsDNA)
DNA 1: CTGGGGGA
DNA 2: TCCCCCAG
B11: the binding result with GST-CNBP (isoform 1, WT) [2] is “no binding”.

Source of the values: PMC5389554.
